This series can be described thus: label from the status in PepcDB records.
For the sequence “MENNGEMNAQPELSGIIDITKTYMYEKLWNICAGPLCVLPKPGEKVYYFPQGHIELIENSTRDELDHIRPIFDLPSKLRCRVVAIDRKVDKNTDEVYAQISLMPDTTDMSQPISTQNLVAKDLYGQEWSFKHVFRGTPQRHMFTSGGGWSVFATTKRLIVGDIFVLLRGENGELRFGIRRAKHQQGHIPSSVISANCMQHGVIASVVNAFKTKCMFNVVYKPSYDKFVDAMNNNYIVGSRFRMQFEGKDFSEKRYDGTIIGVNDMSPHWKDSEWRSLKVQWDELSPFLRPNQVSPWDIEHLIPSSDISQSSATLSNLWTCQEIGQRSMNSPISVPEFSYPNAIEDSKFLSGLLLNHSLLAIPNENYNSDQMIQPRKEDITTEATTSCLLFGVDLTKVHMQGVAISRAVDLTAMHGYNQLIQKLEELFDLKDELRTRNQWEIVFTNNEGAEMLVGDDPWPEFCNMAKRIFICSKEEIKKMKLKNKFFQPESKALTSSDVPPNVTDN”, the protein production result is given as “failed”.

Regarding “MENNPNNNQASLERNELHNTIWKVANELRGSVDGWDFKQYVLGILFYRYISENMTHYINKEERKRDPSFDYAKLSDEKAERGRKHLIEQKGFFIPPSALFCNALKNACHNEDLNVTLQNIFNEIEKSSLGTPSEENVKGLFADLDVNSNKLGSSHQNRVEKLTKILEAIGGMQLGDYLKSGIDVFGDAYEYLMAMYASNAGKSGGEFFTPQEVSELLAKITLHGQESVNKVYDPCCGSGSLLLQFSKVLGDKNVSKGYFGQEINLTTYNLCRINMFLHDINYSKFHIAHGDTLLDPKHEDDEPFDAIVSNPPYSTKWVGDSNPILINDERFSPAGVLAPKNAADLAFTMHMLSYLSNSGTAAIVEFPGVLYRGNAEAKIREYLVKENVIDCVIALPDNLFFGTSIATCILVLKKNKQDDTTLFIDASKEFVKEGKKNKLKERNREKILQTYIERKEIKHFCALANIEKIKENDYNLSVNRYVEQEDTKEAIDIKALNSEIAQIVEKQSALRNRLESIIKELEGGQNA”, the protein production entry was “failed”.

As to “MEPGLDGGYLLLGVDWAINDKGDTVYRPVGLPDPDKVQRDLASQCASMLNVALRPEMQLEQVGGKTLLVVYVPEADVTHKPIYKKATGLPGGAYRRIGSSDQRCVLEHHHHHH”, the protein production entry is recorded as “failed”.

For the sequence “MEPKVTIHRYYSRQAKYEGAVEADLELCIKHCGGDVVRIELVNRLHGIQLQRKLRRLLLLMFLSIAYFVGTCGFDNRTISFLQPRILYPLITCASVAILLIRSTLNLVQAERLFYSWDMALQMETVRSFGRESVLCVQRGHIEDIVLNEVIEDLDVKYMLILRTKGSQFKKRPIIPLFNSQSPSIECLQHTYHVLHKYWLNSTKDRSEESYSKDKQSLVNS”, the protein production result is “failed”.

“MEQEILALFEKILSRKVGFNDELIESDILDSILAVDLVLEVQDVYGCVIPPTEVATVLKTPADLARYIEENRG”: the protein production result is reported as “failed”.

Consider “MEQFSFIACMPDIPGALHRAAEIITRYEGNINRIQYDRRIDLHTVFFEVTALPQAYEKIREELEKIGYLQTSLQPVAFVKFHVYLPNCPGALFDLLNYITSSKSSITFLDFDDRGQHPERLVVGLHIEDPNMIDALLNQLKSRYRLDILEYDTTGEKLDDTVFYLRLAQKLRSFIGSAEDDFLMRFLQDINHITQELSNLQKDPIEVFENILKVGDYLNRTSGDNFYADVQRVRIKDDIELFCFQPPCGGNIYLFDTSSERVMIDTGYGIYFQDIVNMLQYYGLGDLSRLKRIYITHADADHCGAAGCFPAPSYLNRETFLITRETSRAYGSSNQDCILEEVYTKIINLFSRFTPPSNTVLFPEVSLSDKIIEKRGVFPIIARFRIGDLKFEVLEGMGGHMHGEVFYFCPEEGLLFPEDAVINFKSLSPDRTAYNVLADYLMTSVNVDSKLAREERQSLLSLISEIDEQLARKNKKCLICCGHGSMSLLDNGKLIEYKGSERYVAGQKCISQENL”, for which the protein production entry is reported as “failed”.

Consider “MEQGMSKRILVPVAHGSEEMETVIIVDTLVRAGFQVTMAAVGDKLQVQGSRGVWLTAEQTLEACSAEAFDALALPGGVGGAQAFADSTALLALIDAFSQQGKLVAAICATPALVFAKQQKFVGARMTCHPNFFDHIPSERLSRQRVCYYATQHLLTSQGPGTALEFALAMIALLAGVELAQHVAAPMVLHPQQLTELSGFIDAQS”, for which the protein production entry is “not failed”.

As to “MEQLAKLSMTDRLTGLLNRGTWENLVDAEYERFRRYGQATSLVMFDIDHFKPVNDTYGHLAGDEVIRHTADVTRNNIRQSDSAGRYGGEEFGIILPETDAESARVICERIREAIEKSTVSTSAGDIQYTVSMGIAQLTETPENYMQWMQKADEALYKAKESGRNKVVVSLEHHHHHH”, the protein production result was “not failed”.

Turning to “MEQMIFIRKDDKVEVFSEEEELKGSYYRAILEDNPTKSGHNKLKVRYLTQLNEHRLAPLTEFVDQRFIRPVPSEDVNDGVVFVEGLMVDAYLKDGWWTGVVVKTMEDEKFLVYFDCPPDIIQFEKKKLRVHLDWTGFKWIRPDNKELVKSVFSCGTMVELRFDCAWIPVIVIKELEKDKRFLVKYWNKSYSCRESKNLIVDSLRLRPMQPPLSVGKYELLDHVEAFSGFEWRQGVVRGIVFEGRYMVSFGATKEASQFNHSDIRPPMEWEDGVWHKRTKPKRQKETSLDGNRNVQTKEPPGNEMADDVKKESGLPITLGVTATKNKTQGKVSPVPMKNGFGNESTREKMPEEPKIKYYTRKRKRGGLKLNSYINKTVLSSDRTPNVVKNSASNAEENHAKHTIMVLPFAKKSPVWKTYESLEVFKSVSHSLHFSPLFETKQDFREGYAIGMMVTYFGLLEKFKDLEADVPVSQLNSLKDSFSELEKHGFNVTTPLSRIDKLLALKDRQLYIMEELKGFDKEMTNEFSKAKQEFDDMEQKILEVKHKIIELQRQEAALKEQKEAEKEQKDAAWKKICQMESCAKDLNVELEDVEFEFETILSAPW”, the protein production result is given as “failed”.

On to “MEQNSGTSSASGRALFPLYAITFIGTLGFGIILTFLVFLVTDYGGNALVYGILASTYPAFQLIGAPVLGRWSDLYGRKKILLLSQIGTMLAWIIFFAALFFPVIPLIEVRSDLLGTFTITLPLLILFLARALDGATGGNVSVANAYLADLTSEEERNKNYGRMSVASNLGYVFGPAIAGVLGTTAYGEILPVSAALVISIIGTLIVLFLLPDSRPCAIEEYPESTGIRKILGQEQKECYQVEAGSKITFREVFKLEYIPFMLVVYFLIFLGFNIYYTAFPIFAVVALEWSPAELGIYFSVISALMAFVQGPVLAKLARRYRESIMVVGGGFILGLQFILIVSGDYLLLYLAAVFFAFGNGIMWPSILSILSKFAGKKYQGSVQGFAMSASSLASIIGLLAGGFLYTQFGVIAFLIAAAIIYLVVFLSFRLLRIEKEKLIETEAAKTPV”, for which the protein production entry is “failed”.

Take “MEQPQEEAPEVREEEEKEEVAEAEGAPELNGGPQHALPSSSYTDLSRSSSPPSLLDQLQMGCDGASCGSLNMECRVCGDKASGFHYGVHACEGCKGFFRRTIRMKLEYEKCERSCKIQKKNRNKCQYCRFQKCLALGMSHNAIRFGRMPEAEKRKLVAGLTANEGSQYNPQVADLKAFSKHIYNAYLKNFNMTKKKARSILTGKASHTAPFVIHDIETLWQAEKGLVWKQLVNGLPPYKEISVHVFYRCQCTTVETVRELTEFAKSIPSFSSLFLNDQVTLLKYGVHEAIFAMLASIVNKDGLLVANGSGFVTREFLRSLRKPFSDIIEPKFEFAVKFNALELDDSDLALFIAAIILCGGE”: the protein production entry is reported as “not failed”.

As to “MEQRRLASTEWVDIVNEENEVIAQASREQMRAQCLRHRATYIVVHDGMGKILVQRRTETKDFLPGMLDATAGGVVQADEQLLESARREAEEELGIAGVPFAEHGQFYFEDKNCRVWGALFSCVSHGPFALQEDEVSEVCWLTPEEITARCDEFTPDSLKALALWMKRNAKNEAVETETAE”, the protein production result was “not failed”.

With “MEQRVLGGRYLLKDKVGTGGMATVYRAQDQVLDRTVAVKIMLPQYAGDATFAARFKQEAQAAAGLSSPYIVGVYDWGKDGDTYYIVMEYLRGTDLKSGIKSHGALDPKKVAQIGSQISSALSVAHKHEIIHRDIKPQNIMVLPDGNIKVMDFGIARAKNSHLTQDNNVLGTAHYVSPEQTRGQDLGPTSDIYSLGVVMYECATGRVPFDGDDAISVALKQVNELPIPPSQINSGVDADLERIILKCMEKDPTNRFQTADELRQVLNSYLSGRAVNVSEPTRIIGAPGELGATKTRELSDQTRAMVRPVSGVSGQNTARSSVSGSTGSYEVEEPKSNKNKIIAAVVAAVAVIGIVVAFATGLFGGEQVTVPDVLGKDQQTAVELIKEAGLEVGTIDQSYNDDVDEGKVAEQTPNGNTKKTKGTKVNLVISKGPKPSEKVEVPKLVGLTKDQAEAALASVGLKGNASEEANEADEGQVFEQGTEAGKEVAKGTTISYKVSSGPDTTSVPDLTDMTEAQARNALDMAGFGVDVSYQENDSVTEGTVISWNPSGKQKPGATITVVIAKKSGKATVPGNLYGKSISAAVTALNNAGFYNIGFCDQNGNPVSGNEDATVTGVSPTGKQSTDSTITLTVALSGSGSGSGTSTGDDSGTTN”, the protein production entry is given as “failed”.

As for “MEQTEHIPPPGLVAQLRERSLLQTGDRFETLYGGRTNRVWRLHGPADDLVVKLYRRDFDNPLFGNDAQLEALCLDRLEGTGLAPQLRASGALGQEAWVVYDHAPGAPWRTDPAIAARMLANLHRRALDIPAPAGCNGSAAIRTHAEAILSRCDQPDRELLLKARPHTATIAPGPACLIHGDPVAGNLLVSGDQAILIDWQCPAIGDPAEDLAMFLSPAMQQVYRGAPLTAAEEQQFLSAYDNAGTVARYLSLKPWFHWRMAAYCRWRARNGAPDYAPAFELEHAALAAC”, the protein production entry is reported as “failed”.

For the sequence “MEQVIAQVIKRQQTEERPPDVLSQQTTKYEKRNSASLRKRKNSSKLYLKTDQNWMALREKLASNSIHDKGKYRQKRESNVTCFKSGVESGIQNSSVRSRETQVTFCDGTVPSQGLELANSKSTAEISSRNEIPRLTKVVALDCEFVGVGKLGKEHSLARVSIVNFKGEVLYDKYVLNDKEPVVDYRTSVSGIRPEHLRSSDAVSFEQAQRDVYSIIRNRILVGHAIHHDMHALLLSHPRKLIRDTSKWRGLRSHHLSRKTPSLRKLAQEILGIRIQDGEHDSVEDARATLMIYKRFAKEWEMELQTKKVKLARKKHR”, the protein production result was “failed”.

In the case of “MEQVSKSHENKAEEQTEGVGLLERLFKLSQHKTTVKTELMAGLTTFVTMSYIMFLNPIIMSKTGMPFDGLFLATCLGAAIATILMGMYANWPVGLAPGMGLNAFFTFSVVGSMGYSWQIALGAVFLSGVIFVLMSVTRLREWMLDSIPMSLRLAMTAGVGLFLGFIGLRFTGIVVANPDNVVALADMTHFGFGQFGPEAPALGFLSFLLIAILSYRKVFGAVLIGIAVTTFIAFAMTWVLPTDFFVVAEAAKSFAPASGFVAYKGLLAIPEFSALEPILWKADIVGAFEVALIPVIVTFLFVNIFDTAGTLMGVAERANLQDENGKIEGLSKSLKADSISSVIGTAFGCPPVTSYVESAAGVAAGGRTGLTAVTIGLLFAAGVFFLPLAQMLPGFAVDGALIYVAMLMMSSLRGLDWDDLTEYAPAVCTTVMMAFTFSIANGIAFGFITYTVLKVGAGKSSQVSNGVWALTVLFVAKFIFLN”, the protein production result is “failed”.

For the sequence “MERAFMLNGLLVNLVSGLIVMFISAILYYRKPERKWLLIIIVIGMMSVVTAGIRMLVA”, the protein production result was “failed”.
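Also: failed if final PepcDB status was selected cloned or expressed and not failed if soluble or beyond.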
